The values that follow come from publication PMC8864165, “Functional Effects of ARV-1502 Analogs Against Bacterial Hsp70 and Implications for Antimicrobial Activity” (Frontiers in Chemistry, 2022).

Sequences and labels used below:
B1: unnamed (parent)
chain 1: RPDKPRPYLPRPRPPRPVR
chain 2: not shown

A value given as a limit tells only on which side of the number the result lay.

Variants of B1 are the subject of this assay. The assay can be described thus: competitive fluorescence polarization. Particulars: with partner chain of the complex shown; S. aureus DnaK 16 µmol/L; unlabeled peptide 35 µmol/L.
Turning to chain 1 D3K R11L, the ratio to parent is < 1.

With chain 1 D3S K4S R11L, the ratio to parent was < 1.

On to chain 1 D3K K4S, for which the ratio to parent was < 1.

For the variant chain 1 D3K K4F, the ratio to parent was < 1.

Consider chain 1 D3K K4L, for which the ratio to parent is < 1.

chain 1 D3F K4F P10D: the ratio to parent is < 1.

Take chain 1 D3F K4F P10S: the ratio to parent is < 1.

As for chain 1 D3F K4F R11F, the ratio to parent is < 1.

For chain 1 D3F K4F R11L, the ratio to parent is < 1.

Take chain 1 D3S K4S Y8L: the ratio to parent is < 1.

In the case of chain 1 Y8L, the ratio to parent was < 1.
